Reference: the nanobody polyreactivity screen of Harvey et al. (2022)

Test: yeast display, Sf9 membrane polyspecificity reagent, FACS + sequencing; frameworks hold sequencing errors
Procedure, shortened: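 A synthetic nanobody library was expressed on Saccharomyces cerevisiae BJ5465 by galactose induction for 36–48 hours. The library was stained for 1 hour at 4 °C with 10% biotinylated, detergent-solubilized Sf9 membrane reagent and enriched with streptavidin microbeads before FACS. Low and high (top ~1%) gates were set on anti-HA fluorescence for expression and streptavidin fluorescence for reagent binding, and each polyreactivity label reflects the gate of origin.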

Sequence | polyreactivity (PSR sort gate)
QVQLVESGGGLVQAGGSLRLSCAASGRIFPDNTMGGYRQAPGKERELVAVITYSGGSTYYADSVKGRFTISRDNAKNTVYLKMNSLKPEDTAVYYCAARDYYIWFAEVYYWGQGTQVSVSS | low polyreactivity
QVQLVESGGGLVQAGGSLRLSCAASGRIFPEYAMGWYRQAPGKERELVAAITSGGHYADSVKGRFTISRDNAKNTVYLQINSLKPEDTAVYYCSALNVYGSADVTTLEMDYWGQGTLVTVSS | low polyreactivity
QVQLVESGGGLVQAGGSLRLSCAASGRIFPFNDMGWYREAPGKEREFVADISDNGGSTYADSVKGRFTISRDNAKNTVYLQMNSLKPEDTAVYYCNAVYTSYRGGYYYWGQGTQGTVSS | low polyreactivity
QVQLVESGGGLVQAGGSLRLSCAASGRIFPFYAMGWYRQAPGKERELVAAISTRGGSTYYADSVKGRFTISRDNAKNTVYLQMNSLKPADTAVYYCAADVQAVGYDYWGQGTQVTVSS | high polyreactivity
QVQLVESGGGLVQAGGSLRLSCAASGRIFPGYAMGWYRQAPGKERELVAAISSRGGSTYYADSVKGRFTISRDNAKHTVYLQMNSLKPEDTAVYYCAAEPSWWNVFYPGYNYWGQGTQVTVSS | high polyreactivity
QVQLVESGGGLVQAGGSLRLSCAASGRIFPGYAMGWYRQAPGKERELVAAISTNGGRTYYADSVKGRFTISRDNAKNTVYLQMNSLKPEDTAVYYCNAARAVYTQKRFDSWGQGTQVTVSS | high polyreactivity
QVQLVESGGGLVQAGGSLRLSCAASGRIFPHNAMGWYRQAPGKERELVAAITKSGDDTYYADSVKGRFTISRDNAKNTVYLQMNSLKPEDTAVYYCAAYLSWYDYWGQGTQVTVSS | low polyreactivity
QVQLVESGGGLVQAGGSLRLSCAASGRIFPINAMGWYRQAPGKERELVAAISGDGGDTYYADSVKGRFTISRDNAKNTVYLQMNSLKPEDTAVYYCAADALGYDYYYWGQGTQVTVSS | low polyreactivity
QVQLVESGGGLVQAGGSLRLSCAASGRIFPINVMGWYRQAPGKERELVAAISGRGGSTYYADSVKGRFTISRDNAKNTVYLQMNSLKPEDTAVYYCAARSPYRYYYWGQGTQVTVSS | high polyreactivity
QVQLVESGGGLVQAGGSLRLSCAASGRIFPKYAMGWYRHAPGTERELVGAISGSSGSTYYADSVKGRFTISRDNAKNTVYLQMNSLKPDDTAVYYCAARRYRISKTSGYCGQGTQVTVSS | high polyreactivity
QVQLVESGGGLVQAGGSLRLSCAASGRIFPKYAMGWYRQAPGKERELVAAITGIGTSTYYADSVKGRFTISRDNAKNTVYLQMNSLKPEDTAVYYCAADTWTIVDYGYWGQGTQVTVSS | low polyreactivity
QVQLVESGGGLVQAGGSLRLSCAASGRIFPLYAMGWSRQAPGKERELVAAITSSGGSTYYADSVKGRFTISRDNAKNTVYLQMNSLKPEDTAVYYCAADYSVYWLDYGYWGQGTLVTVSS | low polyreactivity
QVQLVESGGGLVQAGGSLRLSCAASGRIFPLYDMGWYRQAPGKERELVAAISSGGTTYYADSVKGRFTISRDNAKNTVYLQMNSLKPEDTEVYYCARRPAQRWGRFDYWVQGTQVTVSS | low polyreactivity
QVQLVESGGGLVQAGGSLRLSCAASGRIFPRNAMGWYSPAPGKERELVAAITRAGSTYYADSVKGRFTISRDNAKNTVYLQLNSLKPEDTAVYYCNRQWHRDVYGHDYWGQGTQVTVSS | high polyreactivity
QVQLVESGGGLVQAGGSLRLSCAASGRIFPRNTMGWYRQAPGKERELVAAISTRGGSTYYADSVKGRSTISRDNAKNNVYLQMNSLKPEDTAVYYCAAGRRFPAIYSTGNYWGQGTQVTVSS | high polyreactivity
QVQLVESGGGLVQAGGSLRLSCAASGRIFPRNTMGWYRQAPGKEREMVAAISTRGGSTYYADSVKGRFTISRDNAQNTVYLEMNSLKPEDTAVDYSAAGRRFPAIYSTGNYWGQGTQVTVSS | high polyreactivity
QVQLVESGGGLVQAGGSLRLSCAASGRIFPRYAMGWYRQATGKERELVATISSGGSTYYADSVKGRFTISRDNAKNTVYLQMNSLKPEDTAVYYCAARKRPYTVINGMDYWGQGTQVTVSS | low polyreactivity
QVQLVESGGGLVQAGGSLRLSCAASGRIFPSYAMGWYRQAPGKERELVAAISSSGGRTYYADSVKGRFTISRDNAKNTVYLQMNSLKPEDTAVYYCAARWVQYGVRYDYWGQGTQVTVSS | high polyreactivity
QVQLVESGGGLVQAGGSLRLSCAASGRIFPSYAMGWYRQAPGKERELVAAITSSDSTYYADSVKGRFTISRDNAKNTVYLQMNSLKPEDTAVYYCAAAYSYSGWWWFGYWGQGTQVTVSS | high polyreactivity
QVQLVESGGGLVQAGGSLRLSCAASGRIFPSYDMGWYRQAPGKDRELVATISSRGDSTYYADSVKGRFTISRDNAKNTVYLQMNSLKPEDTAVYYCAAERPFWEYDYWGQGTQVTVSS | low polyreactivity
QVQLVESGGGLVQAGGSLRLSCAASGRIFPTNAMGWYRQAPGKERELVAAIPVSGGSTYYADSVKGRFTISRDNAKNTVYLQMNSLKPEDTAVYYCAADSSTYRFDYWGQGTQVTVSS | low polyreactivity
QVQLVESGGGLVQAGGSLRLSCAASGRIFPTNAMGWYRQAPGKERELVAAIPVSGGSTYYADSVKGRFTISRDNAKNTVYLQMNSLKPEDTAVYYCAVDDRASVGSRLDHWGQGTQVTVSS | low polyreactivity
QVQLVESGGGLVQAGGSLRLSCAASGRIFPTNAMGWYRQAPGKERELVASITRSGSTYYADSVKGRFTISRDNAKNTVYLQMNSLKPEDTAVYYCAKRYRYSVGWPVKNSAFGYWGQGTQVTVSS | low polyreactivity
QVQLVESGGGLVQAGGSLRLSCAASGRIFPTSTKGWYRQAPGKERELVAAITSGGTTYYADSVKGRVTISRDNAKNTVYLQMNSLKPEDTAVYYCAALRPRRGYYYWGQGTQVTVSS | high polyreactivity
QVQLVESGGGLVQAGGSLRLSCAASGRIFPVNAMGWYRQAPGKEREFVARISRRGGSTYYADSVKGRFTISRDYEKNTVYLQMNSLKPEDTAVYYCAAVSSRYSYDYWGQGTQVTVSS | high polyreactivity
QVQLVESGGGLVQAGGSLRLSCAASGRIFPVNTMGWYREAPGKERELVAAITSGGGTYYADSVKGRFTISRDNAKNTVYLQMNSLKPEDTAVYYCNAPEGRKPYDSWGQGTQVTVSS | low polyreactivity
QVQLVESGGGLVQAGGSLRLSCAASGRIFPVNTMGWYRQAQGKVRELVAAITSGGGTYYADSVKGRFTISRDNAKNTVYLQMNSLKPEDTAVYYCNAPEGRKPYDSWGQGTQVTVSS | low polyreactivity
QVQLVESGGGLVQAGGSLRLSCAASGRIFPWNTMGWYRQAPGKERELVAGINNGDRTYYADSVKGRFTISRDNAKNTVYLQMNSLKPEDTAVYYCAVDTWYFLFQYGYYQEGDYWGQGTQVTVSS | low polyreactivity
QVQLVESGGGLVQAGGSLRLSCAASGRIFPWNTMGWYRQAPGKERELVAGINNGDRTYYADSVKGRFTISRDNENNTVYLQMNSLKPEDTAVYYCAARSPPSAYTYTTWEYDYWGQGTQVTVSS | low polyreactivity
QVQLVESGGGLVQAGGSLRLSCAASGRIFPWYTMGWYRQAPGKERELVAAITSGGNTDYADSVKGRFTISRDNAKNNVYLQMNSLKPEDTAVYYCAAGGYPGTTYYGYDYWGQGTQVTVSS | low polyreactivity
